# Assay results: patent US20200216495A1 (ADRX, published 2020)
# Where “and” joins values, the source holds several entries; their conditions need not be identical. Identical values can stand only once. Square brackets hold non-standard residues; d marks the D form. Ends that are not written are not given here.
# Target: Tau40 P301L protein (human)
# Assay: cell-based or functional assay
row,Binder,"IC50, Tau40 assay (ThT)"
1,[dA][dR][dL][dK][dV][dR][dW] [arlkvrw],3.23 µM
2,[dW][dR][dL][dN][dV][dN][dW] [wrlnvnw],3.23 µM
3,[dR][dW][dK][dV][dR][dW] [rwkvrw],3.7 µM
4,[dH][dR][dF][dK][dV][dQ][dL][dY] [hrfkvqly],4.03 µM
5,[dW][dN][dL][dN][dV][dR][dW] [wnlnvrw],3.33 µM
6,[dW][dR][dL][dR][dI][dW][dW][dW] [wrlriwww],3.76 µM and 5.41 µM
7,[dR][dI][dH][dY][dH][dI][dK][dL] [rihyhikl],3.59 µM
8,[dW][dR][dL][dR][dI][dH][dA] [wrlriha],3.23 µM
9,[dK][dV][dR][dW][dW][dW][dR][dL] [kvrwwwrl],3.84 µM
10,[dL][dK][dI][dW][dI][dW][dY][dH] [lkiwiwyh],3.19 µM
11,[dW][dL][dK][dI][dV][dW] [wlkivw],3.62 µM
12,[dF][dR][dI][dK][dL][dK][dW][dH] [friklkwh],3.88 µM and 3.9 µM
13,[dL][dA][dI][dR][dI][dH][dY] [lairihy],3.98 µM
14,[dF][dR][dL][dW][dI][dH][dW] [frlwihw],3.33 µM
15,[dR][dL][dK][dV][dR][dW] [rlkvrw],3.38 µM and 3.59 µM and 3.81 µM and 4.79 µM
16,[dF][dK][dL][dE][dI][dR][dY][dH] [fkleiryh],3.38 µM
17,[dL][dE][dI][dR][dI][dH][dY][dH] [leirihyh],4.07 µM
18,[dW][dR][dL][dR][dI][dE][dW] [wrlriew],3.23 µM
19,[dL][dK][dI][dR][dI][dH][dR][dH] [lkirihrh],3.16 µM
20,[dW][dW][dL][dR][dI][dH][dW][dW] [wwlrihww],4.09 µM and 5.61 µM
21,[dW][dW][dL][dK][dL][dR][dW] [wwlklrw],3.54 µM

row,Binder,"IC50, Tau40 assay (ThT)"
1,[dL][dD][dL][dR][dF][dK][dL][dY] [ldlrfkly],3.43 µM
2,[dW][dR][dL][dM][dI][dH][dW] [wrlmihw],3.23 µM
3,[dF][dE][dL][dH][dI][dK][dW][dH] [felhikwh],3.11 µM
4,[dF][dK][dI][dR][dI][dK][dW][dH] [fkirikwh],3.06 µM and 5.46 µM
5,[dW][dA][dL][dR][dI][dH][dW] [walrihw],3.23 µM
6,[dF][dE][dI][dR][dL][dH][dH][dW] [feirlhhw],4.2 µM
7,[dR][dL][dR][dV][dR][dW] [rlrvrw],3.71 µM and 4.76 µM
8,[dA][dK][dI][dR][dI][dH][dY][dH] [akirihyh],3.54 µM
9,[dL][dK][dI][dR][dI][dH][dY][dE] [lkirihye],3.32 µM
10,[dL][dK][dI][dR][dR][dH][dY][dH] [lkirrhyh],3.21 µM
11,[dF][dK][dL][dW][dL][dR][dW][dF] [fklwlrwf],4.19 µM and 7.03 µM
12,[dW][dR][dA][dR][dI][dH][dW] [wrarihw],3.33 µM
13,[dL][dK][dI][dF][dI][dW][dY][dH] [lkifiwyh],3.33 µM
14,[dF][dK][dI][dE][dL][dH][dW][dH] [fkielhwh],3.37 µM and 3.44 µM
15,[dF][dR][dL][dW][dI][dH][dW][dF] [frlwihwf],4.39 µM and 6.88 µM
16,[dW][dK][dL][dK][dL][dR][dW][dW] [wklklrww],4.13 µM
17,[dF][dH][dL][dH][dL][dK][dH][dW] [fhlhlkhw],3.74 µM
18,[dL][dK][dI][dE][dI][dH][dY][dH] [lkieihyh],3.64 µM
19,[dW][dR][dL][dK][dA][dR][dW] [wrlkarw],3.23 µM
20,[dW][dR][dA][dK][dV][dR][dW] [wrakvrw],3.23 µM
21,[dL][dK][dI][dE][dI][dH][dY] [lkieihy],3.32 µM

row,Binder,"IC50, Tau40 assay (ThT)"
1,[dF][dH][dL][dK][dI][dR][dH][dH] [fhlkirhh],3.29 µM and 3.36 µM
2,[dW][dR][dL][dE][dI][dH][dW] [wrleihw],3.23 µM
3,[dW][dR][dL][dR][dT][dH][dW] [wrlrthw],3.33 µM
4,[dH][dK][dI][dR][dI][dH][dY][dH] [hkirihyh],3.84 µM
5,[dW][dK][dL][dK][dL][dR][dW] [wklklrw],3.56 µM and 7.39 µM
6,[dF][dE][dI][dR][dL][dW][dH][dH] [feirlwhh],3.38 µM
7,[dF][dR][dI][dR][dL][dR][dW] [frirlrw],3.23 µM
8,[dW][dR][dL][dR][dA][dH][dW] [wrlrahw],3.23 µM
9,[dW][dR][dT][dR][dI][dH][dW] [wrtrihw],3.23 µM
10,[dF][dH][dI][dR][dL][dR][dH][dH] [fhirlrhh],3.21 µM and 4.3 µM
11,[dR][dL][dR][dL][dK][dW] [rlrlkw],3.43 µM
12,[dF][dR][dL][dR][dI][dH][dW][dF] [frlrihwf],3.77 µM and 7.09 µM
13,[dE][dR][dL][dK][dV][dR][dW][dW] [erlkvrww],3.36 µM
14,[dK][dW][dR][dW][dY][dR][dR] [kwrwyrr],3.55 µM
15,[dW][dK][dV][dQ][dV][dR][dY][dW] [wkvqvryw],3.54 µM
16,[dE][dR][dL][dK][dV][dR][dW] [erlkvrw],3.07 µM
17,[dW][dR][dL][dK][dV][dR][dW][dW] [wrlkvrww],3.23 µM
18,[dW][dK][dV][dH][dI][dQ][dH][dW] [wkvhiqhw],3.29 µM
19,[dW][dR][dL][dD][dV][dR][dW] [wrldvrw],3.13 µM
